According to PMC9482650, “Quantitative fragmentomics allow affinity mapping of interactomes” (Nature Communications, 2022):

What was measured:
Assay in all cases: holdup assay
Parameters in all cases: key: below the threshold = too weak to quantify, mostly under pKd 3.1 to 4
[1] = target: Inadl_6, Q8NI35
[2] = target: T1, APBA1_2, Q02410
T1 sequence (Q02410 742-832, limits assumed, looked up): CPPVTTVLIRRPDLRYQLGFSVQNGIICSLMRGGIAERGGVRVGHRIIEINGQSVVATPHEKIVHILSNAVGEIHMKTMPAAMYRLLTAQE

[3] = target: SCRIB_3, Q14160
Chain of SCRIB_3, Q14160 (Q14160 999-1103): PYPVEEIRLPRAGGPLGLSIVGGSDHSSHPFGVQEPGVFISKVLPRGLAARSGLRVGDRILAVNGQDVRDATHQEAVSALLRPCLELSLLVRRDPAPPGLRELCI

[4] = target: FRMPD3, Q5JV73
Chain of FRMPD3, Q5JV73 (Q5JV73 12-100): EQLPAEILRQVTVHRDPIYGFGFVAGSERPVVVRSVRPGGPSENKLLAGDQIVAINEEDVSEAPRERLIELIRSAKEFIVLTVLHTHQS

[5] = target: T2, APBA2_2, Q99767
T2 sequence (Q99767 654-744, limits assumed, looked up): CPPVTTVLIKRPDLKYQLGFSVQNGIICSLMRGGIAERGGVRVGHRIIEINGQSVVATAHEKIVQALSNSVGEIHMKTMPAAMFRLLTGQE

[6] = target: MAGI2_5, Q86UL8
Chain of MAGI2_5, Q86UL8 (Q86UL8 915-1017): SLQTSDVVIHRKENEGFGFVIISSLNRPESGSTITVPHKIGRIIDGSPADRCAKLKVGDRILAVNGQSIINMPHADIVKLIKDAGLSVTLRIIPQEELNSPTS

[7] = target: T3, RADIL, Q96JH8
T3 sequence (Q96JH8 971-1071, limits assumed, looked up): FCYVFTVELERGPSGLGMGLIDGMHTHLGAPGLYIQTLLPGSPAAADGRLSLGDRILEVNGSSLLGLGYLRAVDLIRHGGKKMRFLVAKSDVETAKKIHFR

[8] = target: T4, TIAM2, Q8IVF5
T4 sequence (Q8IVF5 885-986, limits assumed, looked up): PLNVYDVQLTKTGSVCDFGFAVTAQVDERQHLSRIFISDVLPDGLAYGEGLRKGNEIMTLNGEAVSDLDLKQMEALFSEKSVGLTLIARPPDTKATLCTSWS

[9] = target: MAGI2_4, Q86UL8
Chain of MAGI2_4, Q86UL8 (Q86UL8 772-865): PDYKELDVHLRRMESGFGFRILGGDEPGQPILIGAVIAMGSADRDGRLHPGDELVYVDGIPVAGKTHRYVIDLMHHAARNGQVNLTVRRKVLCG

[10] = target: T5, DLG3_2, Q92796
T5 sequence (Q92796 221-321, limits assumed, looked up): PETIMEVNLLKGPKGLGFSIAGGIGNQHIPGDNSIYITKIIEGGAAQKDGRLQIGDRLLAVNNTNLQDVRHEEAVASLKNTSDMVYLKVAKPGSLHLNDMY

[11] = target: T6, APBA2_1, Q99767
T6 sequence (Q99767 563-664, limits assumed, looked up): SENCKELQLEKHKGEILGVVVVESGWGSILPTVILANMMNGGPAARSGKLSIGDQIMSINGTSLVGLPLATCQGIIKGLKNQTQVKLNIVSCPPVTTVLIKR

[12] = target: T7, FRMPD1, Q5SYB0
T7 sequence (Q5SYB0 52-145, limits assumed, looked up): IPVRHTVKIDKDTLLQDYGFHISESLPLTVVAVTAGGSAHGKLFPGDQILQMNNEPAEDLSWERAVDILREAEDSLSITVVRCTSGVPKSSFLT

[13] = target: PDLIM1, O00151
Chain of PDLIM1, O00151 (O00151 1-87): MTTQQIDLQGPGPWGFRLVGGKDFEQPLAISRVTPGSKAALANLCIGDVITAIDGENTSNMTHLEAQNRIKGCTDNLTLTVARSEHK

[14] = target: T8, MPP2, Q14168
T8 sequence (Q14168 180-250, limits assumed, looked up): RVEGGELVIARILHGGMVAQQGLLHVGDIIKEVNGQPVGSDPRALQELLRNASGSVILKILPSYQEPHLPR

[15] = target: DLG4_1, P78352
Chain of DLG4_1, P78352 (P78352 62-152): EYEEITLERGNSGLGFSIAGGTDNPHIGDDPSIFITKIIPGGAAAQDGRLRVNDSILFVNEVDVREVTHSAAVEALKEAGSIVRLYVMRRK

[16] = target: TJP1_2, Q07157
Chain of TJP1_2, Q07157 (Q07157 181-274): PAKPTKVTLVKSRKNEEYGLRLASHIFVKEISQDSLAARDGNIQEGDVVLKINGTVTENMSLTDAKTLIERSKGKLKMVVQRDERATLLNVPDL

[17] = target: GRIP2_5, Q9C0E4
Chain of GRIP2_5, Q9C0E4 (Q9C0E4 544-642): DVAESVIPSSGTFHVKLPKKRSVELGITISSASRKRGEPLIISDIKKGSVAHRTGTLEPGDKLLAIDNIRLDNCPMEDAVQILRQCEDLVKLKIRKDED

[18] = target: T9, GRIP1_5, Q9Y3R0
T9 sequence (Q9Y3R0 568-668, limits assumed, looked up): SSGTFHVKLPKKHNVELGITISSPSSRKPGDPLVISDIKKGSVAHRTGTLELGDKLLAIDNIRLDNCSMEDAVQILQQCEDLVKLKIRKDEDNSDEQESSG

[19] = target: NOS1, P29475
Chain of NOS1, P29475 (P29475 9-101): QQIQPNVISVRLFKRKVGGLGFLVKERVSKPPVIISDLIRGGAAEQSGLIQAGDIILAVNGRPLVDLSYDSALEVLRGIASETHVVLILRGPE

[20] = target: LNX1_2, Q8TBB1
Chain of LNX1_2, Q8TBB1 (Q8TBB1 371-470): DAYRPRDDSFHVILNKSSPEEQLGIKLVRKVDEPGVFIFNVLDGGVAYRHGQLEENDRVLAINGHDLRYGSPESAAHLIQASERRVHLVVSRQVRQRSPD

[21] = target: T10, LRRC7, Q96NW7
T10 sequence (Q96NW7 1440-1537, limits assumed, looked up): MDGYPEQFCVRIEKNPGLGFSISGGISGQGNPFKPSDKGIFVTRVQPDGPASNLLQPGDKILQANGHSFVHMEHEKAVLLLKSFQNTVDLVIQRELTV

[22] = target: MAST2, Q6P0Q8
Chain of MAST2, Q6P0Q8 (Q6P0Q8 1099-1202): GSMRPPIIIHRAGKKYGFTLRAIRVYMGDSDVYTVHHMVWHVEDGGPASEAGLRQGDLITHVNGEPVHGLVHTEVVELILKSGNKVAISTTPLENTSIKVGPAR

[23] = target: T11, NHERF3_4, Q5T2W1
T11 sequence (Q5T2W1 373-468, limits assumed, looked up): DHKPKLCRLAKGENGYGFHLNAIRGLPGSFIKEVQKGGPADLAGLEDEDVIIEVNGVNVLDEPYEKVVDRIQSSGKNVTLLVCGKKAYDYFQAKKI

[24] = target: T12, SIPA1L2, Q9P2F8
T12 sequence (Q9P2F8 945-1036, limits assumed, looked up): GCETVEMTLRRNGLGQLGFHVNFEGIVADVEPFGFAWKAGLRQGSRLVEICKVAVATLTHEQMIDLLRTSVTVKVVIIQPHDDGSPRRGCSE

[25] = target: T13, LNX2_2, Q8N448
T13 sequence (Q8N448 334-432, limits assumed, looked up): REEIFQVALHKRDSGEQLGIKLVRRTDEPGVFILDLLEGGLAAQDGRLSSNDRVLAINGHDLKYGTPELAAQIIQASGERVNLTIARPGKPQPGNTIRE

[26] = plain residues with an end cap or a label only (N-terminal biotin on a linker: ado-ado)
[27] = modified: phospho on T at position -2 from the C-terminal residue

Chain of Inadl_6, Q8NI35 (Q8NI35 1058-1167): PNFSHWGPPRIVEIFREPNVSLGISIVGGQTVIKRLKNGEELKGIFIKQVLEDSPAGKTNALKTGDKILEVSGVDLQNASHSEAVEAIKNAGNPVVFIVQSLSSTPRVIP

B1: MARCHF3, Q86UD3 (peptide)
chain: VKRNSKETVV
**Q.** Which pKd [1, 26] does the source give for B1 here?
**A.** below the threshold

**Q.** And the pKd [2, 26]?
**A.** 3.88

**Q.** And the pKd [3, 26]?
**A.** 4.51

**Q.** What about the pKd [4, 26] of the same binder?
**A.** below the threshold

**Q.** What about the pKd [5, 26] of the same binder?
**A.** below the threshold

**Q.** And the pKd [6, 26]?
**A.** 3.98

**Q.** And the pKd [7, 26]?
**A.** 4.04

**Q.** And the pKd [8, 26]?
**A.** 3.73

**Q.** What about the pKd [9, 26] of the same binder?
**A.** 4.21

**Q.** And the pKd [10, 26]?
**A.** 5.52

**Q.** What about the pKd [11, 26] of the same binder?
**A.** below the threshold

**Q.** And the pKd [12, 26]?
**A.** below the threshold

**Q.** What about the pKd [13, 26] of the same binder?
**A.** below the threshold

**Q.** What about the pKd [14, 26] of the same binder?
**A.** below the threshold

**Q.** And the pKd [15, 26]?
**A.** 5.48

**Q.** And the pKd [16, 26]?
**A.** below the threshold

**Q.** And the pKd [17, 26]?
**A.** below the threshold

**Q.** What about the pKd [18, 26] of the same binder?
**A.** below the threshold

**Q.** What about the pKd [19, 26] of the same binder?
**A.** 4.03

**Q.** What about the pKd [20, 26] of the same binder?
**A.** 3.68

**Q.** And the pKd [21, 26]?
**A.** 3.79

**Q.** What about the pKd [22, 26] of the same binder?
**A.** 4.68

**Q.** What about the pKd [23, 26] of the same binder?
**A.** below the threshold

**Q.** And the pKd [24, 26]?
**A.** below the threshold

**Q.** What about the pKd [25, 26] of the same binder?
**A.** 5.2

B2: SCN8A, Q9UQD0 (peptide)
chain: RQKEVRESKC
**Q.** B2 was tested. Which pKd [1, 26] did it give?
**A.** below the threshold

**Q.** And the pKd [2, 26]?
**A.** below the threshold

**Q.** And the pKd [3, 26]?
**A.** 4.16

**Q.** And the pKd [4, 26]?
**A.** below the threshold

**Q.** And the pKd [5, 26]?
**A.** below the threshold

**Q.** And the pKd [6, 26]?
**A.** 3.61

**Q.** And the pKd [7, 26]?
**A.** below the threshold

**Q.** What about the pKd [8, 26] of the same binder?
**A.** 4.02

**Q.** And the pKd [9, 26]?
**A.** below the threshold

**Q.** And the pKd [10, 26]?
**A.** 4.1

**Q.** What about the pKd [11, 26] of the same binder?
**A.** below the threshold

**Q.** And the pKd [12, 26]?
**A.** below the threshold

**Q.** What about the pKd [13, 26] of the same binder?
**A.** below the threshold

**Q.** And the pKd [14, 26]?
**A.** below the threshold

**Q.** What about the pKd [15, 26] of the same binder?
**A.** below the threshold

**Q.** What about the pKd [16, 26] of the same binder?
**A.** below the threshold

**Q.** And the pKd [17, 26]?
**A.** below the threshold

**Q.** What about the pKd [18, 26] of the same binder?
**A.** below the threshold

**Q.** And the pKd [19, 26]?
**A.** below the threshold

**Q.** And the pKd [20, 26]?
**A.** below the threshold

**Q.** And the pKd [21, 26]?
**A.** below the threshold

**Q.** What about the pKd [22, 26] of the same binder?
**A.** 4.82

**Q.** And the pKd [23, 26]?
**A.** below the threshold

**Q.** And the pKd [24, 26]?
**A.** below the threshold

**Q.** And the pKd [25, 26]?
**A.** below the threshold

B3: HPV16-E6_-2P, P03126 (peptide)
chain: SSRTRRETQL
**Q.** What does the source list for B3?
**A.** pKd [1, 27]: below the threshold; pKd [2, 27]: below the threshold; pKd [3, 27]: below the threshold; pKd [4, 27]: below the threshold; pKd [5, 27]: below the threshold; pKd [6, 27]: below the threshold; pKd [7, 27]: below the threshold; pKd [8, 27]: below the threshold; pKd [9, 27]: below the threshold; pKd [10, 27]: below the threshold; pKd [11, 27]: below the threshold; pKd [12, 27]: below the threshold; pKd [13, 27]: below the threshold; pKd [14, 27]: below the threshold; pKd [15, 27]: below the threshold; pKd [16, 27]: below the threshold; pKd [17, 27]: below the threshold; pKd [18, 27]: below the threshold; pKd [19, 27]: 3.63; pKd [20, 27]: below the threshold; pKd [21, 27]: below the threshold; pKd [22, 27]: 3.79; pKd [23, 27]: below the threshold; pKd [24, 27]: below the threshold; pKd [25, 27]: below the threshold
